Data on six molecules can be found in publication PMC10649420, “Expression Patterns and Functional Analysis of Three SmTAT Genes Encoding Tyrosine Aminotransferases in Salvia miltiorrhiza” (International Journal of Molecular Sciences, 2023).

Common to all, as to assay: aminotransferase assay, product absorbance, microplate reader
Holding throughout (assay type): biochemical, Salvia miltiorrhiza

In one data set the test system is SmTAT3. The settings on record: 100 μM PLP, 30 °C, 30 min, 20 μg/mL enzyme. An excerpt: aminotransferase assay, product absorbance, microplate reader on SmTAT3
Substrate in data set [1]: N[C@@H](Cc1ccc(O)cc1)C(=O)O
To be noted: 10 mM alpha-ketoglutarate, 100 μM PLP, 30 °C, 30 min, 20 μg/mL enzyme. The source says:
(§1) aminotransferase assay, product absorbance, microplate reader on SmTAT2

Substrate in data set [2]: N[C@@H](Cc1ccccc1)C(=O)O
The settings on record: 10 mM alpha-ketoglutarate, 100 μM PLP, 30 °C, 30 min, 20 μg/mL enzyme.
Text: as §1

Substrate in data set [3]: O=C(O)C(=O)Cc1ccc(O)cc1
The settings on record: 10 mM glutamate, 100 μM PLP, 30 °C, 30 min, 20 μg/mL enzyme, reverse reaction.
Text: as §1

Substrate in data set [4]: O=C(O)C(=O)Cc1ccccc1
The settings on record: 10 mM glutamate, 100 μM PLP, 30 °C, 30 min, 20 μg/mL enzyme, reverse reaction.
Text: as §1

Substrate in data set [5]: N[C@@H](Cc1ccc(O)cc1)C(=O)O
The settings on record: 10 mM alpha-ketoglutarate, 100 μM PLP, 30 °C, 30 min, 1 μg/mL enzyme. An excerpt:
(§2) aminotransferase assay, product absorbance, microplate reader on SmTAT1

Substrate in data set [6]: N[C@@H](Cc1ccccc1)C(=O)O
To be noted: 10 mM alpha-ketoglutarate, 100 μM PLP, 30 °C, 30 min, 1 μg/mL enzyme.
Text: as §2

Substrate in data set [7]: O=C(O)C(=O)Cc1ccc(O)cc1
To be noted: 10 mM glutamate, 100 μM PLP, 30 °C, 30 min, 1 μg/mL enzyme, reverse reaction.
Text: as §2

Substrate in data set [8]: O=C(O)C(=O)Cc1ccccc1
The settings on record: 10 mM glutamate, 100 μM PLP, 30 °C, 30 min, 1 μg/mL enzyme, reverse reaction.
Text: as §2

Where [9] appears, read: 10 mM glutamate, reverse reaction.

Turning to `O=C(O)C(=O)Cc1ccccc1` [phenylpyruvate], the Michaelis constant (Km) with SmTAT3 (setting [9]) is 3910 ± 2010 µM.

Turning to `N[C@@H](Cc1ccc(O)cc1)C(=O)O` [tyrosine], the Michaelis-Menten constant (Km) with SmTAT3 (10 mM alpha-ketoglutarate) is 2730 ± 1610 µM.

`O=C(O)C(=O)Cc1ccc(O)cc1` [4-hydroxyphenylpyruvate]: the Km in the data set with SmTAT3 (setting [9]) amounted to 2220 ± 220 µM.

As to `N[C@@H](Cc1ccccc1)C(=O)O` [phenylalanine], the Km in the data set with SmTAT3 (10 mM alpha-ketoglutarate) is 5470 ± 3230 µM.

B1: SmTAT2 (Salvia miltiorrhiza) (protein)
chain: MPNSTERERERELSMENGGSAAARWRFEGNERLILAGGVTVRGVLNTVIGNLDGNDTRPVIPLGHGDPSAFPSFRTSPFAEDAVCSAVRSTKFNGYSSTVGIPAARSAVAEYLSKDLPYKLSPDDVFLTIGCTQALEAVVTVLARPGANLLLPRPGFPYYEARAGFCSLEFRHFDLLPEQDWEVDLASVEALADENTVAMVIINPGNPCGNVFKYEHLKKVAETARKLGILVISDEVYDHLTFGSNPFVPMGVFASIAPILTLGSISKRWIVPGWRLGWLVTNDPDGILTKQGIVDSIKGFLNISADPATFMQGAVPQILENTPSDFFQKIVSTLRETADICYERSKEIPCITCPSRPEGSMFAMVKLNLSLLEGIEDDMDFCCKLAKEESVILLPGFAVGLKNWLRVTFAIEPSSLDDGFLRIKAFHQRHAKKQ
For B1, the Km came to 3470 ± 1690 µM in data set [1], 6930 ± 3390 µM in data set [2], 480 ± 160 µM in [3] and 3940 ± 990 µM in data set [4]. The Vmax in data set [1] is 0.0486 µmol/min/mg; in [2] it was 0.109 µmol/min/mg; in [3] it was 0.448 µmol/min/mg; in data set [4], 0.057 µmol/min/mg. For the same molecule, the kcat in [1] stood at 0.15 ± 0.03 s⁻¹; in data set [3] it was 1.35 ± 0.08 s⁻¹; in data set [4] it was 0.17 ± 0.02 s⁻¹. The catalytic efficiency (kcat/Km) in [1] was 60 ± 40 M⁻¹ s⁻¹; in [3], 3230 ± 1240 M⁻¹ s⁻¹; in [4] it was 50 ± 20 M⁻¹ s⁻¹.

B2: SmTAT1 (Salvia miltiorrhiza) (protein)
chain: MELQNPAQEIDAPTTITIKGILGLLMSSTDPKESGKRVISLGIGDPTAYSCFHASNAAQEGVVEALRSTKFNGYAPTAGLPQTREAIAEYLSRDLPYKLPADSVYVTAGCTQAIEIALSVLARPGANILLPRPCFPIYGLCASFRNIEVRYFDLHPEQGWEVDLDAVADLADHNTVAMVIINPGNPCGNVYSYQHLKKIAETAKRLGIVVIADEVYGHLAFGANPFVPMGIFGSIAPVVTLGSLSKRWLVPGWRLGWLVINDPDGSLMSPKFVERIKKYCDICGGPATFIQAAVPEIVEQTQEVFFRKTINILKQTSDICYQKIEDINGITCPTKPKGAMAFMVKLNLSRMKDISDDIDFCFKLAKEESVIILPGLAVGLKNWIRITFAVDVPALEEAMERLKSFCERHSY
notes: full ORF 1236 bp (about 411 residues) with GST tag (pGEX-4T-1), soluble from E. coli Arctic Express (DE3)
On to B2, for which, in data set [5], the Km came out at 310 ± 110 µM, the maximum rate (Vmax) stood at 6.88 µmol/min/mg, the kcat was 19.8 ± 0.93 s⁻¹ and the kcat/Km worked out at 74400 ± 29400 M⁻¹ s⁻¹. In addition, in data set [6], the Michaelis-Menten constant (Km) is 3080 ± 990 µM, the maximal velocity (Vmax) turned out to be 4.36 µmol/min/mg, the kcat stood at 12.6 ± 1.43 s⁻¹ and the kcat/Km worked out at 4680 ± 2020 M⁻¹ s⁻¹. Also, in [7], the Michaelis-Menten constant (Km) was 2770 ± 520 µM, the maximal velocity (Vmax) was found to be 3.19 µmol/min/mg, the catalytic constant (kcat) was determined as 9.21 ± 0.78 s⁻¹ and the specificity constant (kcat/Km) was determined as 3500 ± 940 M⁻¹ s⁻¹. Also, in data set [8], the Michaelis-Menten constant (Km) is 710 ± 210 µM, the maximal velocity (Vmax) was determined as 3.63 µmol/min/mg, the catalytic constant (kcat) came out at 10.4 ± 0.39 s⁻¹ and the kcat/Km amounted to 16300 ± 4620 M⁻¹ s⁻¹.

What is called Km is the substrate concentration at which the rate is half of its maximum. As a reminder, the Vmax is the rate approached at saturating substrate. The term kcat denotes the maximal rate divided by the concentration of active sites. What is called kcat/Km is the second-order rate constant that governs catalysis at low substrate concentration.
